Conditions in all cases: source organism: Hepatitis B virus
One test has as its target HLA-A*02:06. In words: IEDB peptide-MHC binding, purified MHC/competitive/radioactivity; filed as Kd, often an IC50 or EC50 that approximates it; ≥ and ≤ were set here for values at or beyond the usual limits of such assays.
The target in the next test is HLA-A*31:01. The description is as above.
In test [1] the target is HLA-A*68:01. The test is described as above.
For a further test, the target named is HLA-A*33:01. The description is as above.
The target of test [2] is HLA-B*51:01. The test is described as above.
Test [3] concerns the target HLA-A*68:01. In words: IEDB peptide-MHC binding, purified MHC/competitive/radioactivity; ≥ and ≤ were set here for values at or beyond the usual limits of such assays.
Test [4] has as its target HLA-A*03:01. The description is as above.
Another test concerns the target HLA-B*53:01. The description is as above.
Test [5] concerns the target HLA-B*51:01. The description is as above.
In the next test the target is HLA-B*35:01. The description is as above.
For test [6], the target named is HLA-A*03:01. Kind of test: IEDB peptide-MHC binding, purified MHC/competitive/radioactivity; filed as Kd, often an IC50 or EC50 that approximates it; ≥ and ≤ were set here for values at or beyond the usual limits of such assays.
The target in another test is HLA-A*02:03. The test is described as above.

The Kd is the concentration at which binding is half-saturated. Take GLLGWSPQA: in the test with HLA-A*02:06, the Kd amounted to 1.32 µM.

In the case of MMWYWGPSLY, the Kd with HLA-A*31:01, with HLA-A*68:01 [1] and with HLA-A*33:01 was no less than 25 µM throughout.

With TPARVTGGVF, in the test with HLA-B*51:01 [2], the Kd was no less than 25 µM.

The term IC50 denotes the concentration at which inhibition is half-maximal. In the case of VVDFSQFSR, the IC50 with HLA-A*68:01 [3] turned out to be 0.32 µM.

Turning to KVGNFTGLY, the Kd with HLA-A*31:01, with HLA-A*68:01 [1] and with HLA-A*33:01 was no less than 25 µM in each case.

As for RVTGGVFLVDK, the Kd with HLA-A*31:01, with HLA-A*68:01 [1] and with HLA-A*33:01 was no less than 25 µM throughout. For the same sequence, the 50% inhibitory concentration (IC50) with HLA-A*03:01 [4] is 0.579 µM.

Consider YPALMPLYA, for which the IC50 is 0.664 µM in the test with HLA-B*53:01, 0.162 µM with HLA-B*51:01 [5] and 0.15 µM with HLA-B*35:01.

As for VTGGVFLVDK, in the test with HLA-A*31:01, the Kd was no less than 25 µM.

Take GTDNSVVLSR: the figures for the Kd in the test with HLA-A*68:01 [1] and with HLA-A*03:01 [6] were no less than 20 µM and no less than 10 µM, respectively.

In the case of HTLWKAGILY, in the test with HLA-A*31:01, the Kd was no less than 25 µM.

Take GTDNSVVLSRK: the Kd in the test with HLA-A*31:01, with HLA-A*68:01 [1] and with HLA-A*33:01 was no less than 25 µM in each case. Further, the IC50 with HLA-A*03:01 [4] was found to be 0.786 µM.

YMDDVVLGA: the dissociation constant (Kd) in the test with HLA-A*02:03 is 4.17 µM; with HLA-A*02:06, no less than 25 µM.

With TLWKAGILY, the equilibrium dissociation constant (Kd) with HLA-A*68:01 [1] and in the test with HLA-A*33:01 was no less than 25 µM each time.

PVNRPIDWK: the Kd in the test with HLA-A*31:01 and with HLA-A*33:01 was no less than 25 µM in each case.

As to IPIPSSWAF, the IC50 was found to be 0.22 µM with HLA-B*51:01 [5] and 0.0026 µM with HLA-B*35:01.

DPSRGRLGL: the Kd with HLA-B*51:01 [2] was no less than 25 µM.

For the sequence YMDDVVLGAK, the Kd with HLA-A*31:01, with HLA-A*68:01 [1] and in the test with HLA-A*33:01 was no less than 25 µM throughout.

The values above are taken from the Immune Epitope Database (IEDB).
